Reference: patent US20250270343A1 (Alector, published 2025)
Residue numbers refer to the chain shown, from its start.

B1: anti-GPNMB antibody GPN-41 (antibody, human IgG1, V domains shown)
VH: QLQLQQSGTEVVKPGASVKIPCKASGYAFSSYWMNWVKQRPGKGLEWIGQIYPGDGDTNDNGKFEGKATLTVDKSSNTAYIQLSSLTSEDSAVYFCARSPLHLRGSMDYWGQGTSVTVSS
VL: SIVMTQTPKFLLVSAGDRVTITCKASQSVSNDVAWFQQKPGQSPELLIYSASNRYTGVPDRFTASGYGTDFTFTISAVQAEDLAVYFCQQNYYSPFTFGGGTRLEIK
notes: chimeric
B2: anti-GPNMB antibody GPN-65 (antibody, human IgG1, V domains shown)
VH: B1 VH
VL: B1 VL with A64G, A77T
notes: chimeric
B3: anti-GPNMB antibody GPN-03 (antibody, human IgG1, V domains shown)
VH: QVQLQQSGPELVKPGASVKLSCKASGYTFTNYYMYWVKQRPGQGLEWIGEINPRNGGTNFNEKFKSKATLTVDKSSSTAYMQLSSLTFEDSAVYYCTTGLAYWGQGTLVTVSA
VL: DVVMTQTPLSLPVSLGDQASISCRSSQSLVHSDGNTYLHWYLQKPGQSPKLLIYKVSTRFSGVPDRFSGSGSGTDFTLKISRVEAEDLGVYFCSQSTHVPWTFGGGTKLEIK
notes: chimeric
B4: anti-GPNMB antibody GPN-06 (antibody, human IgG1, V domains shown)
VH: B3 VH with P9A, P53T, F88S, L100F
VL: DIQMTQSPASLSASVGETVTITCRASENIYSYLVWYQQNQGKSPQLLVYNAKTLAEGVPSRFSGSGSGTQFSLKINSLQPEDFGTYYCQHHYGTPFTFGSGTKLEIK
notes: chimeric
B5: anti-GPNMB antibody GPN-38 (antibody, human IgG1, V domains shown)
VH: QVQLQQPGAELVRPGTSVRLSCKASGYTFTSYWIHWVKQRPGRGLEWIGVIDPSDSYTNYNQQFNVKATLTVDTSSSAAYMQLSSLTSEDSAVYYCARGLITAVNWYFDVWGTGTTVTVSS
VL: B4 VL with A13T, T18I, V34T, N39K, F96L
notes: chimeric
B6: anti-GPNMB antibody GPN-48 (antibody, human IgG1, V domains shown)
VH: QVQLQQSGPELVKPGASVKLSCRASGYGFSSFWMNWVKQRPGKGLEWIGRIYPGKGDTLYNGKFKDKATLTADESSSTAYMQLSSLTSEDSAVYFCARSIYYYDYWYFDVWDTGTTVTVSS
VL: DIVMTQSHKFMSTSVGDRVNITCKASQDVNSAIAWYQQKPGQSPKLLIYSASYRFIGVPDRFTGSGSGTGFTFTISSVQAEDLAVYYCQQHYTTPLTFGAGTKLELK
notes: chimeric
B7: anti-GPNMB antibody GPN-35 (antibody, human IgG1, V domains shown)
VH: EVQLVESGGGSVRPGRSLKLSCAAAGFTFSDYYMTWVRQAPTKGLEWVASINHDGGGTYYRDSVKGRFTISRDNARSSLYLQMDSLRSEDTGTYYCTTRAGWHWGQGVMVTVSS
VL: DIQMTQSPASLSASLGETVSIECLASEDIYNYLTWYQQKPGKSPQVLIYSASGLQDGVPSRFSGSGSGRQYSLKINGLESEDAATYFCLQDSEYPLTFGSGTKLEIK
notes: chimeric
B8: anti-GPNMB antibody GPN-37 (antibody, human IgG1, V domains shown)
VH: EVQLVESGGGLVQPGRSLKLSCAASGFTFSSKSGMAWVRQAPTKGLEWVASISNGGGDTYYRDSVKGRFTISRDNAKNTQYLQMDSLRPEDTATYYCARHRDYGYDAYFDYWGQGVMVTVSS
VL: DIQMTQSPASLSASLGETVTIECLASEDIYSSLAWYQQKPGKSPQLLIYDASSLQDGVPSRFSGSESGTQYSLEINSLQSEDAATYFCQQHHDYPYTFGAGTKLELK
notes: chimeric
B9: anti-GPNMB antibody GPN-52 (antibody, human IgG1, V domains shown)
VH: DVQLQESGPGLVKPSQTVFLTCTVTGISITTGNYRWSWIRQFPGNKLEWIGYIYYSGTITYNPSLTSRITITRDTPKNEFFLEMNSLTAEDTATYYCARDLTHWYFDVWGTGTTVTVSS
VL: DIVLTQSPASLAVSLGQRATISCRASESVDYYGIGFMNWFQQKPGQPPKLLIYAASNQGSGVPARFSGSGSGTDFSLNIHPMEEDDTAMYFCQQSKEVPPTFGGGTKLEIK
notes: chimeric
B10: anti-GPNMB antibody GPN-61 (antibody, human IgG1, V domains shown)
VH: B9 VH with I69T, E79Q, N85S, Y96F, T102R
VL: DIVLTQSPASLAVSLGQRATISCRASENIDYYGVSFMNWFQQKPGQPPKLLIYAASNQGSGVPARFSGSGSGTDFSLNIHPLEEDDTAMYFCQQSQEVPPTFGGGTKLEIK
notes: chimeric

Target: T1, full-length untagged human GPNMB expressed on cells (human, UniProt Q14956 23-572)
T1 construct: also used here for GPNMB on human monocyte-derived macrophages in the functional assays; also called huGPNMB; Freestyle293-huGPNMB+
T1 sequence: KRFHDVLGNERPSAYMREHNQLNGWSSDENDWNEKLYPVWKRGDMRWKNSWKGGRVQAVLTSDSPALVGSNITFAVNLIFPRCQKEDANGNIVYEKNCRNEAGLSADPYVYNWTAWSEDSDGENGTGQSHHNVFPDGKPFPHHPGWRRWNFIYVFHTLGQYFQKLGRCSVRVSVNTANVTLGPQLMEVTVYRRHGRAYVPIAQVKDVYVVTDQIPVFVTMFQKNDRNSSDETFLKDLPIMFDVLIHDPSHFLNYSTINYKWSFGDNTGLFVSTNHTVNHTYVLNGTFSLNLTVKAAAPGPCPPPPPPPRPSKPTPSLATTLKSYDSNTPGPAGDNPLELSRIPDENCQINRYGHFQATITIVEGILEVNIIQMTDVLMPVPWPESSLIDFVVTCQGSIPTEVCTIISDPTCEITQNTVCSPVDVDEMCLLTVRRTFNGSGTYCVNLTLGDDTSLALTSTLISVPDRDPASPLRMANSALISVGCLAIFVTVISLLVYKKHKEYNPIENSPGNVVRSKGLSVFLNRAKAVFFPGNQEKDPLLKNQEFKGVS
Experiment: FACS, FS293-huGPNMB+ cells
Protocol: Recombinant anti-GPNMB antibodies of the present disclosure were examined for their ability to bind human and/or mouse GPNMB expressed on Freestyle293-huGPNMB+ or B16F10 cells, respectively. B16F10 cells are a murine melanoma cell line from a C57BL/6J mouse that endogenously express high levels of mouse GPNMB. The antibodies were also tested for their ability to bind to a human macrophage cell line (U937 cells) engineered to express human GPNMB. Cells were harvested, plated at 100,000 cells/well in a 96-well round bottom plate, and incubated in 100 μl FACS buffer (PBS containing 2% FBS, 2 mM EDTA) containing anti-GPNMB monoclonal antibodies of the present disclosure for 30 minutes on ice. Cells were then washed and incubated in 100 ul FACS buffer containing 1 μg/ml APC-conjugated anti-human IgG secondary antibody for 30 minutes in ice. Cells were washed twice in cold FACS buffer and acquired on a BD FACS Canto. Data analysis and calculation of MFI values was performed with FlowJo (TreeStar) software version 10.0.7.
Importantly, several anti-GPNMB antibodies of the present disclosure also bound to the human macrophage cell line U937 cells engineered to express human GPNMB (U937/huGPNMB+) (FIG. 2C). In FIG. 2C, the first data point in each pair corresponds to U937/huGPNMB+ cells, and the second data point in each pair corresponds to U937/huGPNMB− cells. No anti-GPNMB antibodies bound to U937 cells deficient in human GPNMB expression (U937/huGPNMB−).

Question: How did the “MFI fold over background” value turn out when B1 was run?
Answer: The value was 23.6 fold.

Question: Which “MFI fold over background” value does the source give for B2 here?
Answer: The value was 8.1 fold.

Question: B3 was tested. Which “MFI fold over background” value did it give?
Answer: Its value is 89.2 fold.

Question: Which “MFI fold over background” value does the source give for B4 here?
Answer: Its value is 66.4 fold.

Question: With B5 as the binder, how does the “MFI fold over background” value read?
Answer: Its value is 20.7 fold.

Question: How did the “MFI fold over background” value turn out when B6 was run?
Answer: Its value is 9.7 fold.

Question: B7 was tested. Which “MFI fold over background” value did it give?
Answer: The value was 104 fold.

Question: With B8 as the binder, how does the “MFI fold over background” value read?
Answer: The value was 105 fold.

Question: With B9 as the binder, how does the “MFI fold over background” value read?
Answer: Its value is 7.6 fold.

Question: With B10 as the binder, how does the “MFI fold over background” value read?
Answer: The value was 18.6 fold.

Target: T2, soluble human GPNMB (recombinant extracellular domain) (human, UniProt Q14956 23-498)
T2 construct: also called huGPNMB; recombinant human GPNMB extracellular domain; not shown: C-terminal polyhistidine or Avi-His tag
T2 sequence: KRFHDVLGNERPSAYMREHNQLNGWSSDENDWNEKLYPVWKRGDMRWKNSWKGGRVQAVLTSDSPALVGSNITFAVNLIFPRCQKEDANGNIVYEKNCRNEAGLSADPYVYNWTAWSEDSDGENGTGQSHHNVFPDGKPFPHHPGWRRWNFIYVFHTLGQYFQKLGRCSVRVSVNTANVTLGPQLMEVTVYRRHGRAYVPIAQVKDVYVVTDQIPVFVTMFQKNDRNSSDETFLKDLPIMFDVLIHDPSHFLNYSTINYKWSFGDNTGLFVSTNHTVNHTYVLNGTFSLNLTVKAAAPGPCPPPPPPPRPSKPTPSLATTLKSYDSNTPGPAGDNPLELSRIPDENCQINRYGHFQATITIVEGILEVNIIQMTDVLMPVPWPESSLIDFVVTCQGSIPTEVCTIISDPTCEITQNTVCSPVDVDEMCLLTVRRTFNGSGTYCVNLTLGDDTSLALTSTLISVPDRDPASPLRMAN
Experiment: SPR Carterra, Ab immobilized
Protocol: Binding kinetics of human anti-GPNMB IgG1 antibodies of the present disclosure to human, cynomolgus, and mouse GPNMB were evaluated using a Carterra LSA instrument (Carterra, Salt Lake City, UT). […] A HC200M sensor chip (Carterra) was activated using the single channel flow cell with a 7-minute injection of a 1:1:1 mixture of 100 mM MES pH 5.5, 100 mM sulfo-NHS, 400 mM EDC (all reconstituted in MES pH 5.5; 100 μl of each mixed in vial immediately before running assay). After switching to the multi-channel array flow cell, the antibodies were injected over the activated chip in a 96-spot array for 15 minutes. The remaining unconjugated active groups on the chip were then blocked by injecting 1M Ethanolamine pH 8.5 (Carterra) for 7 minutes using the single channel flow cell.
After priming with running buffer (HBS-EP+, Teknova) with 0.5 mg/ml BSA (Sigma), the immobilized anti-GPNMB antibodies were tested for their ability to bind to several forms of recombinant GPNMB extracellular domain, including human, cynomolgus, and mouse orthologs as described above. Estimates of affinity were generated by injecting each analyte over the entire antibody array using the single channel flow cell. GPNMB analytes were diluted to 2.5, 7.4, 22, 67, 200, and 600 nM in running buffer, and injected in serial from lowest to highest concentration without regeneration. Two buffer blanks were run between each series (one species per series). Data were processed and analyzed using Kinetics high-throughput kinetics analysis software (Carterra).

Question: B1 was tested. Which Kd did it give?
Answer: The Kd was 0.441 nM.

Question: And the koff?
Answer: The koff was 8.2e-05 s⁻¹.

Question: And the kon?
Answer: The kon was 200000 M⁻¹ s⁻¹.

Question: How did the Kd turn out when B2 was run?
Answer: Its Kd is 0.49 nM.

Question: And the koff?
Answer: The koff was 0.0001 s⁻¹.

Question: And the kon?
Answer: Its kon is 210000 M⁻¹ s⁻¹.

Question: Which results are given for B3?
Answer: Kd: 29.6 nM; koff: 0.0019 s⁻¹; kon: 100000 M⁻¹ s⁻¹

Question: B4 was tested. Which Kd did it give?
Answer: Its Kd is 73.9 nM.

Question: What about the koff of the same binder?
Answer: The koff was 0.0032 s⁻¹.

Question: What about the kon of the same binder?
Answer: The kon was 54000 M⁻¹ s⁻¹.

Question: What does the source list for B5?
Answer: Kd: 4.92 nM; koff: 0.00053 s⁻¹; kon: 110000 M⁻¹ s⁻¹

Question: For B6, which Kd is on record?
Answer: Its Kd is 1.1 nM.

Question: And the koff?
Answer: Its koff is 0.00037 s⁻¹.

Question: And the kon?
Answer: The kon was 330000 M⁻¹ s⁻¹.

Question: How did the Kd turn out when B7 was run?
Answer: Its Kd is 21 nM.

Question: What about the koff of the same binder?
Answer: The koff was 0.0015 s⁻¹.

Question: What about the kon of the same binder?
Answer: The kon was 71000 M⁻¹ s⁻¹.

Question: For B8, which Kd is on record?
Answer: Its Kd is 1 nM.

Question: And the koff?
Answer: Its koff is 0.00011 s⁻¹.

Question: And the kon?
Answer: Its kon is 110000 M⁻¹ s⁻¹.

Question: For B9, which Kd is on record?
Answer: Its Kd is 37.9 nM.

Question: And the koff?
Answer: The koff was 0.0032 s⁻¹.

Question: What about the kon of the same binder?
Answer: Its kon is 86000 M⁻¹ s⁻¹.

Question: Which Kd does the source give for B10 here?
Answer: Its Kd is 50.1 nM.

Question: What about the koff of the same binder?
Answer: The koff was 0.0035 s⁻¹.

Question: What about the kon of the same binder?
Answer: Its kon is 71000 M⁻¹ s⁻¹.
